Source: publication PMC10164577, “CAF-1 deposits newly synthesized histones during DNA replication using distinct mechanisms on the leading and lagging strands” (Nucleic Acids Research, 2022)

Assays:
Settings in all cases: both partners purified
[1] = biological target: Histones H3–H4 (H3 C110A-H4 E63C), Alexa488-labeled (Xenopus laevis, maleimide AlexaFluor-488 on E63C); experiment: fluorescence polarisation; 10 nM Alexa488-labeled H3–H4 with increasing CAF-1, Polϵ, Polδ or RPA; 25 mM TRIS pH 7.5, 300 mM NaCl, 5% glycerol, 1 mM EDTA, 0.01% IGEPAL, 0.01% CHAPS, 1 mM DTT; one site binding curve
[2] = biological target: T1, Chromatin Assembly Factor-1 (CAF-1), wild type (yeast, UniProt Q12495 1-606; Q04199 1-468; P13712 1-422); experiment: SEC; PCNA (30 μM) loaded on nicked pUC19 (0.3 μM) by RFCΔN (0.5 μM) with 10 mM MgCl2 and 3 mM ATP, then CAF-1 (5 μM), 15 min room temperature; Superose 6 increase 3.2/300 in 50 mM HEPES pH 7.5, 200 mM NaCl, 0.01% IGEPAL, 1 mM TCEP, 10 mM MgCl2; fractions on SDS-PAGE
T1 construct: Cac1, large subunit of yeast CAF-1; Cac2, subunit of yeast CAF-1; Cac3, subunit of yeast CAF-1; Heterotrimer Cac1-Cac2-Cac3; also called WT CAF-1; copies: + +

[3] = biological target: T1, Chromatin Assembly Factor-1 (CAF-1), …; experiment: cross-linking; limiting PCNA: 50 nM AF546-PCNA K164C loaded on nicked pUC19 (15 nM) by full-length RFC (15 nM), CAF-1 titrated 0-1 μM, 100-110 mM NaCl; 0.2% glutaraldehyde; nuclease digestion; SDS-PAGE, PCNA fluorescence, band intensities; affinities estimated
[4] = biological target: T2, Clamp loader RFC (RFC1-5), full-length (yeast, UniProt P38630 1-861; P40348 1-353; P38629 1-340; P40339 1-323; P38251 1-354); experiment: as above
T2 construct: Rfc1, yeast replication factor C subunit 1; Rfc2, yeast replication factor C subunit 2; Rfc3, yeast replication factor C subunit 3; Rfc4, yeast replication factor C subunit 4; Rfc5, yeast replication factor C subunit 5; also called full-length RFC; copies: + + + +

B1: DNA polymerase delta (Polδ) (complex)
chain 1: MSEKRSLPMVDVKIDDEDTPQLEKKIKRQSIDHGVGSEPVSTIEIIPSDSFRKYNSQGFKAKDTDLMGTQLESTFEQELSQMEHDMADQEEHDLSSFERKKLPTDFDPSLYDISFQQIDAEQSVLNGIKDENTSTVVRFFGVTSEGHSVLCNVTGFKNYLYVPAPNSSDANDQEQINKFVHYLNETFDHAIDSIEVVSKQSIWGYSGDTKLPFWKIYVTYPHMVNKLRTAFERGHLSFNSWFSNGTTTYDNIAYTLRLMVDCGIVGMSWITLPKGKYSMIEPNNRVSSCQLEVSINYRNLIAHPAEGDWSHTAPLRIMSFDIECAGRIGVFPEPEYDPVIQIANVVSIAGAKKPFIRNVFTLNTCSPITGSMIFSHATEEEMLSNWRNFIIKVDPDVIIGYNTTNFDIPYLLNRAKALKVNDFPYFGRLKTVKQEIKESVFSSKAYGTRETKNVNIDGRLQLDLLQFIQREYKLRSYTLNAVSAHFLGEQKEDVHYSIISDLQNGDSETRRRLAVYCLKDAYLPLRLMEKLMALVNYTEMARVTGVPFSYLLARGQQIKVVSQLFRKCLEIDTVIPNMQSQASDDQYEGATVIEPIRGYYDVPIATLDFNSLYPSIMMAHNLCYTTLCNKATVERLNLKIDEDYVITPNGDYFVTTKRRRGILPIILDELISARKRAKKDLRDEKDPFKRDVLNGRQLALKISANSVYGFTGATVGKLPCLAISSSVTAYGRTMILKTKTAVQEKYCIKNGYKHDAVVVYGDTDSVMVKFGTTDLKEAMDLGTEAAKYVSTLFKHPINLEFEKAYFPYLLINKKRYAGLFWTNPDKFDKLDQKGLASVRRDSCSLVSIVMNKVLKKILIERNVDGALAFVRETINDILHNRVDISKLIISKTLAPNYTNPQPHAVLAERMKRREGVGPNVGDRVDYVIIGGNDKLYNRAEDPLFVLENNIQVDSRYYLTNQLQNPIISIVAPIIGDKQANGMFVVKSIKINTGSQKGGLMSFIKKVEACKSCKGPLRKGEGPLCSNCLARSGELYIKALYDVRDLEEKYSRLWTQCQRCAGNLHSEVLCSNKNCDIFYMRVKVKKELQEKVEQLSKW
chain 2: MDALLTKFNEDRSLQDENLSQPRTRVRIVDDNLYNKSNPFQLCYKKRDYGSQYYHIYQYRLKTFRERVLKECDKRWDAGFTLNGQLVLKKDKVLDIQGNQPCWCVGSIYCEMKYKPNVLDEVINDTYGAPDLTKSYTDKEGGSDEIMLEDESGRVLLVGDFIRSTPFITGVVVGILGMEAEAGTFQVLDICYPTPLPQNPFPAPIATCPTRGKIALVSGLNLNNTSPDRLLRLEILREFLMGRINNKIDDISLIGRLLICGNSVDFDIKSVNKDELMISLTEFSKFLHNILPSISVDIMPGTNDPSDKSLPQQPFHKSLFDKSLESYFNGSNKEILNLVTNPYEFSYNGVDVLAVSGKNINDICKYVIPSNDNGESENKVEEGESNDFKDDIEHRLDLMECTMKWQNIAPTAPDTLWCYPYTDKDPFVLDKWPHVYIVANQPYFGTRVVEIGGKNIKIISVPEFSSTGMIILLDLETLEAETVKIDI
chain 3: MDQKASYFINEKLFTEVKPVLFTDLIHHLKIGPSMAKKLMFDYYKQTTNAKYNCVVICCYKDQTIKIIHDLSNIPQQDSIIDCFIYAFNPMDSFIPYYDIIDQKDCLTIKNSYELKVSESSKIIERTKTLEEKSKPLVRPTARSKTTPEETTGRKSKSKDMGLRSTALLAKMKKDRDDKETSRQNELRKRKEENLQKINKQNPEREAQMKELNNLFVEDDLDTEEVNGGSKPNSPKETDSNDKDKNNDDLEDLLETTAEDSLMDVPKIQQTKPSETEHSKEPKSEEEPSSFIDEDGYIVTKRPATSTPPRKPSPVVKRALSSSKKQETPSSNKRLKKQGTLESFFKRKAK
Work on B1 yielded a Kd [1] of no less than 300 nM.

B2: Proliferating Cell Nuclear Antigen (PCNA), wild type (natural protein, yeast, UniProt P15873 1-258, looked up)
chain: MLEAKFEEASLFKRIIDGFKDCVQLVNFQCKEDGIIAQAVDDSRVLLVSLEIGVEAFQEYRCDHPVTLGMDLTSLSKILRCGNNTDTLTLIADNTPDSIILLFEDTKKDRIAEYSLKLMDIDADFLKIEELQYDSTLSLPSSEFSKIVRDLSQLSDSINIMITKETIKFVADGDIGSGSVIIKPFVDMEHPETSIKLEMDQPVDLTFGAKYLLDIIKGSSLSDRVGIRLSSEAPALFQFDLKSGFLQFFLAPKFNDEE
notes: PCNA, yeast; homotrimeric clamp; In the SEC experiments loaded onto nicked pUC19 by RFCΔN and ATP
B2: binds [2].

B3: PCNA K164C, labeled with Alexa Fluor 546 (natural protein, yeast, UniProt P15873 1-258, looked up)
chain: MLEAKFEEASLFKRIIDGFKDCVQLVNFQCKEDGIIAQAVDDSRVLLVSLEIGVEAFQEYRCDHPVTLGMDLTSLSKILRCGNNTDTLTLIADNTPDSIILLFEDTKKDRIAEYSLKLMDIDADFLKIEELQYDSTLSLPSSEFSKIVRDLSQLSDSINIMITCETIKFVADGDIGSGSVIIKPFVDMEHPETSIKLEMDQPVDLTFGAKYLLDIIKGSSLSDRVGIRLSSEAPALFQFDLKSGFLQFFLAPKFNDEE
modifications: labeled with Alexa Fluor 546
notes: PCNA, yeast, K164C; also called fluorescently labeled PCNA; source: made by standard mutagenesis, purified following the wild-type protocol
In the case of B3, the Kd [3] is reported as roughly 100 nM and the binding result [4] is reported as “binds”.
